The values below come from the RNAGym collection of RNA variant scans (doi:10.1073/pnas.2313332121).

B1: TPR 5TU (parent)
chain: GGAUCUUCUCGAUCUAACAAAAAAGACAAAUCUGCCACAAAGCUUGAGAGCAUCUUCGGAUGCAGAGGCGGCAGCCUUCGGUGGCGCGAUAGCGCCAACGUUCUCAACUAUGACACGCAAAACGCGUGCUCCGUUGAAUGGAGUUUAUCAUG

This sample holds only a part of the variants without activity.

In the data set the parent is B1. The data set is described as follows: polymerase ribozyme fitness, log enrichment relative to wild type (log ratio); higher = more active; in vitro selection for triplet polymerase activity. A digest of the protocol:
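Mutant libraries were PCR-built and transcribed for each subunit of a heterodimeric triplet polymerase ribozyme and selected for one round in triplicate at −7 °C, frozen, before gel excision of extended constructs and streptavidin-bead capture. Input and output libraries were Illumina-sequenced, keeping genotypes with ≥10 input reads and ≥1 read per output. Fitness is a logarithmic ratio of genotype to wild-type enrichment, in base 2, using inverse-variance-weighted replicate averages.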
Regarding GGAUCUUCUCGAUCUAACAAAAAAGACAAAUCUGCCACAAAGCUUGAGAGCAUCUUCGGAUGCAGAGGCGGCAGCCUUCGGUGGUGCGAUAGGGCCAACGUUCUCAACUAUGACACGCAAAACGCGUGCUCCGUUGAAUGGAGUUUAUCAUG [C85U C93G], the “polymerase ribozyme fitness (log ratio)” value was -3.83.

For GGAUCUUCUCGAUCUAACAAAAAAGACAAAUCUGCCACAAAGCUUGAGAGCAUCUUCGGAUGCAGAGGCGGCAGCCUUCGGUGGCGCGAUAGUGCCUACGUUCUCAACUAUGACACGCAAAACGAGUGCUCCGUUGAAUGGAGUUUAUCAUG [C93U A97U C125A], the “polymerase ribozyme fitness (log ratio)” value was -2.13.

Consider GGAUCUUCUCGAUCUAACAAAAAAGACAAAUCUGCCACAAUGCUUGAGAGCAUCUUCGGAUGCAGAGGCGGCAGCCUUCGGUUGCGCGAUAGCGCCAACGUUCUCAACUAUGACACGCAAAACGCGUGCUCCGUUGAAUGGAGUUUAUCUUG [A41U G83U A150U], for which the “polymerase ribozyme fitness (log ratio)” value was -1.02.

As to GGAUCUUCUCGAUCUAACAAUAAAGACAAAUCUGCCACAAGGCUUGAGAGCAUCUUCGGAUGCAGAGGCGGCAGCCUUCGGUGGCGCGAUAGCGAAAACGUUCUCAACUAUGACACGCAAAACGCGUGCUCCGUUGAAUGGAGUUUAUCAUG [A21U A41G C95A C96A], the “polymerase ribozyme fitness (log ratio)” value was -0.65.

As to GGAUCUUCUCGAUCUAAACAAAAAGACAAAUCUGCCACAAAGCUUGAGAUCAUCUUCGGAUGCAGAGGCGGCAGUCUUCGGUGGCGCGAUAGCGCCAACGUUCUCAACUUUGACACGCAAAACGCGUGCUCCGUUGAAUGGAGUUUAUCAUG [C18A A19C G50U C75U A110U], the “polymerase ribozyme fitness (log ratio)” value was at most -4.2.

Regarding GGAUCUUCUCGAUCUAACAAAAAAGACAAAUCUGCCACAAAGCUUGAGAGCAUCUUCGGAUACAGAGGCGGCAGCCUUCGGUGGCGCGAUAGGGCCAACGUUCUCAACUAUGACACGCAAAACGCGUGCCCCGUUGAAUGGAGUUUAUCAUG [G62A C93G U130C], the “polymerase ribozyme fitness (log ratio)” value is -3.01.

Regarding GGAUCUUCUCGAUCUAACAAAAAAGACAAAGCUGCCACAAAGCUUGAGAGCAUCUUCGGAUGCAGAGGCGGCAGCCUUCGGUGGCGCGAUAGCGCCAACGUUCUCAACUAUGACACGCAAAACGUGUGCACCGUUGAAUGGAGUUUAUCAUG [U31G C125U U130A], the “polymerase ribozyme fitness (log ratio)” value is at most -4.2.

For the variant GGAUCUUCUCGAUCUAACAAAAAAGACAAAUCUGCCACAAAGCUUGAGAGCAUUUUCGGAUGCAGAGGCGGCAGCCUUCGGUGGCACGAUAGCGCCAACGUUCUCAACUAUGACACGCAAAACGCGUGCUCCGUUGAAUGGAGUUUAUCAUG [C54U G86A], the “polymerase ribozyme fitness (log ratio)” value was -1.18.

With GGAUCUUCUCGAUCUAACAAAAAAGACAAAUCUGCCACAAAGCUUGAGAGCAUUUUCGGAUGCAGAGGCGGCAGCCUUCGGUGGCUCGAUAGCGCCAACGUUCUCAACUAUGACACGCAAAACGCGUGCUCCGUUGAAUGGAGUUUAUCAUG [C54U G86U], the “polymerase ribozyme fitness (log ratio)” value was -1.78.

GGAUCAUCUCGAUCUAACAAAAAAGACAAAUCUGCCACAAAGCUUGAGAGCAUCUUCGGAUGCAGAGGCGGCAGCCUUCGGUGGCGCGAUAGCGCCAACGUUCUCAACUAUGACACGCAAAACGCGUGCUCCGUUGAAUGGAGUUUAUCAUG [U6A]: the “polymerase ribozyme fitness (log ratio)” value is 0.197.

For the variant GGAUCUUCUCGAUCUAACAAAAAAGACAAAUCUGCCACAAAGCUUGAGAGCAUCUUCGGAUGCAGAGGCGGCAGCCUUCGGUGGCGCGAUAGCGCCAACGUUCUCAAGUAUGACACGCAAACCGCGUGCUCCGUUGAAUGGAGUUUAUCAUG [C108G A122C], the “polymerase ribozyme fitness (log ratio)” value was at most -4.2.

Consider GGAUCUUCUCGCUUUAACAAACAAGACAAAUCUGCCACAAAGCUUGAGAGCAUCUUCGGAGGCAAAGGCGGCAGCCUUCGGUGGCACGAUAGUGCCAACGUUCUCAACUAUGACACGCAAAACGCGUGCUCCGGUGAAUGGAGUUUAUCAUG [A12C C14U A22C U61G G65A G86A C93U U134G], for which the “polymerase ribozyme fitness (log ratio)” value was at most -4.2.

Take GGAUCUUCUCGAUCUAACAAAAAAGACAAAUCUGCCACAAAGCUUGAGAGCAUCUUCGGAUGCAGAGGCGGCAGUCUUCGGUGUCGCGAUAGCGCCAACGUUCUCAACUAUGACACGCAAAACGCGUGCUCCGUUGAAUGGAGUUUAUCAUG [C75U G84U]: the “polymerase ribozyme fitness (log ratio)” value is -2.45.

For the variant GGAUCUUCUCGAUCUAACAAAAAAGACAAAUCUGCCACAAAGCUUGAGAGCAUCUUCGGAUGCAGAGGCGACAGCCUUCGGUGGCGCGAUUGCGCCAACGUUCUCAACUAUGACACGCAAAACGCGUGCUCCGUUGAAUGGAGUUGAUCAUG [G71A A91U U146G], the “polymerase ribozyme fitness (log ratio)” value was at most -4.2.

GGAUCUUCUCGAUCUAACAAAUAAGACAAAUCUGCCACAAACCUUGAGAGCAUCUUCGGAUGCAGAGGCGGCAGCCUUCAGUGGCGCGAUGGCGGCAUCGUUCUCAACUAUGACACGCAAAACGCGUGCUCCGUUGAAUGGAGUUUAUCAUG [A22U G42C G80A A91G C95G A98U]: the “polymerase ribozyme fitness (log ratio)” value is at most -4.2.

Take GGAUCUUCUCGAUCUAACAAAAAAGACAAAUCUGCCACAAAGCUUGAGAGCAUCUUCGGAUGCAGAGGCGGCAGUCUUCGGUGGCGCGAUAGCGCCAACGUUCUCAACUAUGACACGCAAAACGCGUGCUCCGUUCAAUGGAGUUUAUCAUG [C75U G136C]: the “polymerase ribozyme fitness (log ratio)” value was -2.6.

On to GGAUCUGGUCGAUCUAACAAAAAAGACAAAUCUGCCACAAAGCUGGAGAGCAUCUUCGGAUGCAGUGGCGGCAGCCUUCGGUGGUGCGAUAGCGCCAACGUUCUCAACUAUGACACGCAAAACGCGUGCUCCGUUGAUUGGAGUUUAUCAUG [U7G C8G U45G A66U C85U A138U], for which the “polymerase ribozyme fitness (log ratio)” value is at most -4.2.

On to GGAUCUUCUCGAUCUAACAAAAACGACAAGUCUGCCACAAAGCUUGAGAGCAUCUUCGGAUGCAGAGGCGGCUGCCUUCGGUGGCGCGAUAGCGCAAACGUUCUCAACUAUGACACGCAAAACGCGUGCUCCGUUGAAUGGAGUUUAUCAUG [A24C A30G A73U C96A], for which the “polymerase ribozyme fitness (log ratio)” value is at most -4.2.

With GGAUCUUCUCGUUCUAACAAAAAAGACAAAUCUGCCACAAAGCUUGAGAGCAUUUUCGGAUGCAGAGGCGGCAGCCUUCGGUGGCCCGAUAGCGCCAACGUUCUCAACUAUGACACGCAAAACGCGUGCUCCGUUGAAUGGAGUUUAUCAUG [A12U C54U G86C], the “polymerase ribozyme fitness (log ratio)” value was -3.04.
